This experiment concerns the target actin (rabbit muscle), P68135. The experiment is described as follows: fluorescence anisotropy. The note with it: chain shown with the change, actin filaments titrated 0-12 µM. In general terms: Polarisation of emitted light reports the rotation of a fluorescent probe.

The source of these data is article PMC11952830.

B1: Cdc42EP3 labeled with tetramethylrhodamine (TMR) at C211, Q9UKI2 KLP->AAA (protein)
chain: MPAKTPIYLKAANNKKGKKFKLRDILSPDMISPPLGDFRHTIHIGKEGQHDVFGDISFLQGNYELLPGNQEKAHLGQFPGHNEFFRANSTSDSVFTETPSPVLKNAISLPTIGGSQALMLPLLSPVTFNSKQESFGPAAAARLSAEPVMEEKAQEKSSLLENGTVHQGDTSWGSSGSASQSSQGRDSHSSSLSEQYPDWPAEDMFDHPTPCELIKGKTKSEESLSDLTGSLLSLQLDLGPSLLDEVLNVMDKNK
One may read the Kd as the concentration at which binding is half-saturated. Take B1: the dissociation constant Kd (20 nM TMR-labeled KLP-AAA Cdc42EP3 (TMR at C211) held fixed) came to 3.4 µM.

B2: Cdc42EP3 labeled with tetramethylrhodamine (TMR) at C211, Q9UKI2 IS->AA (protein)
chain: MPAKTPIYLKAANNKKGKKFKLRDILSPDMAAPPLGDFRHTIHIGKEGQHDVFGDISFLQGNYELLPGNQEKAHLGQFPGHNEFFRANSTSDSVFTETPSPVLKNAISLPTIGGSQALMLPLLSPVTFNSKQESFGPAKLPRLSAEPVMEEKAQEKSSLLENGTVHQGDTSWGSSGSASQSSQGRDSHSSSLSEQYPDWPAEDMFDHPTPCELIKGKTKSEESLSDLTGSLLSLQLDLGPSLLDEVLNVMDKNK
Under “20 nM TMR-labeled IS-AA Cdc42EP3 (TMR at C211) held fixed”, B2 had a Kd of 2.8 µM.
